Assay results from patent US20160264649A1.

Columns and labels:
Experiment in all cases: cell-based or functional assay
[1] = target: HIV-1 MGRM-A-012 Env (HIV-1)
[2] = target: HIV-1 MGRM-AE-002 Env (HIV-1)
[3] = target: HIV-1 MGRM-A-004 Env (HIV-1)
[4] = target: HIV-1 MGRM-A-011 Env (HIV-1)
[5] = target: HIV-1 MGRM-A-010 Env (HIV-1)
[6] = target: HIV-1 MGRM-AE-007 Env (HIV-1)
[7] = target: HIV-1 93WR029 Env (HIV-1)
[8] = target: HIV-1 MGRM-A-008 Env (HIV-1)
[9] = target: HIV-1 VLGCA1 Env (HIV-1)
[10] = target: HIV-1 Env of isolate MG RM-C-026 (subtype C) (HIV-1)
[11] = target: HIV-1 92UG037 Env (HIV-1)
[12] = target: HIV-1 MGRM-A-014 Env (HIV-1)
[13] = target: HIV-1 MGRM-A-003 Env (HIV-1)
[14] = target: HIV-1 Env of isolate MG RM-C-019 (subtype C) (HIV-1)
[15] = target: HIV-1 MGRM-A-005 Env (HIV-1)
[16] = target: HIV-1 MGRM-AE-006 Env (HIV-1)
[17] = target: HIV-1 94UG103 Env (HIV-1)
[18] = target: HIV-1 MGRM-AG-009 Env (HIV-1)
[19] = target: HIV-1 MGRM-AG-012 Env (HIV-1)
[20] = target: HIV-1 MGRM-AG-006 Env (HIV-1)
[21] = target: HIV-1 MGRM-A-007 Env (HIV-1)
[22] = target: HIV-1 Env of isolate MG RM-C-022 (subtype C) (HIV-1)
[23] = target: HIV-1 MGRM-A-006 Env (HIV-1)
[24] = target: HIV-1 92WR024 Env (HIV-1)
[25] = target: HIV-1 MGRM-AE-004 Env (HIV-1)
[26] = target: HIV-1 MGRM-AE-008 Env (HIV-1)
[27] = target: HIV-1 Env of isolate MG RM-C-027 (subtype C) (HIV-1)
[28] = target: HIV-1 MGRM-AE-001 Env (HIV-1)
[29] = target: HIV-1 Env of isolate MG RM-C-028 (subtype C) (HIV-1)
[30] = target: HIV-1 MGRM-A-002 Env (HIV-1)
[31] = target: HIV-1 Env of isolate MG RM-C-025 (subtype C) (HIV-1)
[32] = target: HIV-1 MGRM-AE-005 Env (HIV-1)
[33] = target: HIV-1 MGRM-AG-001 Env (HIV-1)
[34] = target: HIV-1 Env of isolate MG RM-C-020 (subtype C) (HIV-1)
[35] = target: HIV-1 Env of isolate MG RM-C-024 (subtype C) (HIV-1)
[36] = target: HIV-1 92RW008 Env (HIV-1)
[37] = target: HIV-1 92TH021 Env (HIV-1)
[38] = target: HIV-1 MGRM-A-013 Env (HIV-1)
[39] = target: HIV-1 92WR020 Env (HIV-1)
[40] = target: HIV-1 92WR009 Env (HIV-1)
[41] = target: HIV-1 MGRM-AG-008 Env (HIV-1)
[42] = target: HIV-1 Env of isolate MG RM-C-023 (subtype C) (HIV-1)
[43] = target: HIV-1 MGRM-AG-003 Env (HIV-1)
[44] = target: HIV-1 93UG077 Env (HIV-1)
[45] = target: HIV-1 MGRM-AG-002 Env (HIV-1)
[46] = target: HIV-1 92WR021 Env (HIV-1)
[47] = target: HIV-1 94KE105 Env (HIV-1)
[48] = target: HIV-1 MGRM-AG-013 Env (HIV-1)
[49] = target: HIV-1 92WR026 Env (HIV-1)
[50] = target: HIV-1 MGRM-A-009 Env (HIV-1)
[51] = target: HIV-1 92UG031 Env (HIV-1)
[52] = target: HIV-1 MGRM-AG-005 Env (HIV-1)
[53] = target: HIV-1 MGRM-AG-011 Env (HIV-1)
[54] = target: HIV-1 MGRM-AE-003 Env (HIV-1)
[55] = target: HIV-1 MGRM-A-001 Env (HIV-1)
[56] = target: HIV-1 CMU02 Env (HIV-1)

Substance: 5147_N06 (PGT-130) (antibody)
- IC50 [1]: > 50 µg/mL
- IC50 [2]: 1.53 µg/mL
- IC50 [3]: > 50 µg/mL
- IC50 [4]: > 50 µg/mL
- IC50 [5]: 0.005 µg/mL
- IC50 [6]: 0.083 µg/mL
- IC50 [7]: 34.3 µg/mL
- IC50 [8]: > 50 µg/mL
- IC50 [9]: > 50 µg/mL
- IC50 [10]: 0.036 µg/mL
- IC50 [11]: 0.061 µg/mL
- IC50 [12]: 0.161 µg/mL
- IC50 [13]: > 50 µg/mL
- IC50 [14]: 0.01 µg/mL
- IC50 [15]: > 50 µg/mL
- IC50 [16]: 0.009 µg/mL
- IC50 [17]: 1.4 µg/mL
- IC50 [18]: 9.46 µg/mL
- IC50 [19]: > 50 µg/mL
- IC50 [20]: 0.009 µg/mL
- IC50 [21]: > 50 µg/mL
- IC50 [22]: 0.127 µg/mL
- IC50 [23]: > 50 µg/mL
- IC50 [24]: > 50 µg/mL
- IC50 [25]: 2.43 µg/mL
- IC50 [26]: > 50 µg/mL
- IC50 [27]: 0.008 µg/mL
- IC50 [28]: 1 µg/mL
- IC50 [29]: > 50 µg/mL
- IC50 [30]: 0.01 µg/mL
- IC50 [31]: > 50 µg/mL
- IC50 [32]: 0.006 µg/mL
- IC50 [33]: > 50 µg/mL
- IC50 [34]: > 50 µg/mL
- IC50 [35]: > 50 µg/mL
- IC50 [36]: 0.089 µg/mL
- IC50 [37]: 0.009 µg/mL
- IC50 [38]: > 50 µg/mL
- IC50 [39]: 0.039 µg/mL
- IC50 [40]: 1.27 µg/mL
- IC50 [41]: > 50 µg/mL
- IC50 [42]: 0.151 µg/mL
- IC50 [43]: 0.041 µg/mL
- IC50 [44]: 21.4 µg/mL
- IC50 [45]: > 50 µg/mL
- IC50 [46]: 0.004 µg/mL
- IC50 [47]: 0.004 µg/mL
- IC50 [48]: 0.01 µg/mL
- IC50 [49]: 0.037 µg/mL
- IC50 [50]: 0.308 µg/mL
- IC50 [51]: > 50 µg/mL
- IC50 [52]: 0.54 µg/mL
- IC50 [53]: > 50 µg/mL
- IC50 [54]: 0.337 µg/mL
- IC50 [55]: > 50 µg/mL
- IC50 [56]: > 50 µg/mL

Substance: 5136_H01 (PGT-131) (antibody)
- IC50 [1]: > 50 µg/mL
- IC50 [2]: > 50 µg/mL
- IC50 [3]: > 50 µg/mL
- IC50 [4]: > 50 µg/mL
- IC50 [5]: 0.01 µg/mL
- IC50 [6]: 0.026 µg/mL
- IC50 [7]: > 50 µg/mL
- IC50 [8]: > 50 µg/mL
- IC50 [9]: > 50 µg/mL
- IC50 [10]: 1.67 µg/mL
- IC50 [11]: 0.048 µg/mL
- IC50 [12]: 15.4 µg/mL
- IC50 [13]: > 50 µg/mL
- IC50 [14]: 0.021 µg/mL
- IC50 [15]: > 50 µg/mL
- IC50 [16]: 0.026 µg/mL
- IC50 [17]: 1.1 µg/mL
- IC50 [18]: > 50 µg/mL
- IC50 [19]: > 50 µg/mL
- IC50 [20]: 0.019 µg/mL
- IC50 [21]: > 50 µg/mL
- IC50 [22]: 0.78 µg/mL
- IC50 [23]: > 50 µg/mL
- IC50 [24]: > 50 µg/mL
- IC50 [25]: > 50 µg/mL
- IC50 [26]: > 50 µg/mL
- IC50 [27]: 0.065 µg/mL
- IC50 [28]: 4.8 µg/mL
- IC50 [29]: > 50 µg/mL
- IC50 [30]: > 50 µg/mL
- IC50 [31]: > 50 µg/mL
- IC50 [32]: 0.017 µg/mL
- IC50 [33]: > 50 µg/mL
- IC50 [34]: > 50 µg/mL
- IC50 [35]: > 50 µg/mL
- IC50 [36]: 1.01 µg/mL
- IC50 [37]: 0.014 µg/mL
- IC50 [38]: > 50 µg/mL
- IC50 [39]: 0.168 µg/mL
- IC50 [40]: 3.12 µg/mL
- IC50 [41]: > 50 µg/mL
- IC50 [42]: 0.143 µg/mL
- IC50 [43]: 2.92 µg/mL
- IC50 [44]: > 50 µg/mL
- IC50 [45]: > 50 µg/mL
- IC50 [46]: 0.012 µg/mL
- IC50 [47]: 0.013 µg/mL
- IC50 [48]: 0.03 µg/mL
- IC50 [49]: 0.041 µg/mL
- IC50 [50]: 0.035 µg/mL
- IC50 [51]: > 50 µg/mL
- IC50 [52]: 1.04 µg/mL
- IC50 [53]: > 50 µg/mL
- IC50 [54]: 1.41 µg/mL
- IC50 [55]: > 50 µg/mL
- IC50 [56]: > 50 µg/mL
